Assays:
Type in all cases: binding
[1] = Competitive immunoassay-3 with Metabolite 1 as competitor (Example 7); conditions: for 4-P Fit parameter C, Concentration vs % B/B0: Metabolite 1 as competitor, biotinylated tofacitinib 1 ng/ml; for cross reactivity to metabolite 1 (in words, FIG. 3): competitive immunoassay
Procedure: (§1) After washing the plates, 200 μl of streptavidin-HRP (50 ng/ml) was added and the plates were then incubated for 0.5-1 hour at room temperature. After washing the plates again, 200 μl of TMB (3,3′,5,5′-Tetramethylbenzidine) substrate was added, then color developed for 30 minutes, and the reaction was stopped by adding 50 μl 2 N sulfuric acid. Absorbance at 450 nm was measured.
For this example, eleven anti-tofacitinib monoclonal antibodies were screened for cross reactivity with metabolite 1 using competitive immunoassay. […] After washing the plates, 200 μl of streptavidin-HRP (50 ng/ml) was added and then incubated for 0.5-1 hour at room temperature. After washing the plates again, 200 μl of TMB substrate was added, then developed for 30 minutes, and stopped by adding 50 μl 2 N sulfuric acid. Absorbance at 450 nm was measured.

[2] = Standard curve with tofacitinib, ELISA (Example 10); conditions: biotinylated tofacitinib 1 ng/ml
Description: FIG. 4 is a graph depicting optimal dilution ranges of select monoclonal antibodies of the invention, e.g., 6D9.A8 (open circles) and 12D4.G6 (open squares) as determined by ELISA.

[3] = Tofacitinib dose response curves with antibody clones (Example 12); conditions: for Antigen ED50: Table 10; for Tofacitinib ED50: tofacitinib 0.001 to 1000 ng/ml, antibody dilution 1:25,600 (6D9.A5), 1:4,000 (6D9.A8), 1:22,000 (12D4.G6); for 4-P Fit parameter C, Concentration vs % B/B0: tofacitinib standard curve
Description: Further, the data used to generate the graph shown in FIG. 5 are set forth below in Table 9.

[4] = Antigen ED50 in cross reactivity experiment (Example 9); conditions: antibody at EC50 dilution; biotinylated tofacitinib 1 ng/mL
Procedure: (§2) Two clones, 6D9.A8 and 12D4.G6, were tested for cross reactivity to metabolites 1 and 2. In this experiment, the metabolites were prepared at concentrations of 200,000 to 200 ng/ml and the antibody clones were prepared at their EC50 dilutions shown in Table 1.

[5] = Cross reactivity to Metabolite 1, competitive immunoassay-3 or direct ELISA (Example 12); conditions: for Metabolite 1 Cross reactivity: Table 10
Procedure: as §1

[6] = Cross reactivity competitive ELISA with Metabolite 2 (Example 9); conditions: metabolite 200,000 to 200 ng/ml; antibody at EC50 dilution
Procedure: as §2

[7] = Cross reactivity to Metabolite 2, competitive immunoassay-3 or direct ELISA (Example 12); conditions: for Metabolite 2 Cross reactivity: Table 10
Procedure: as §1

[8] = Antigen competition immunoassay, unlabeled tofacitinib vs biotinylated tofacitinib (Example 8)
Procedure: as §1, with “and” for “and the plates were”, “TMB” for “TMB (3,3′,5,5′-Tetramethylbenzidine)”, “then” for “then color”, “and” for “and the reaction was”, “2N” for “2 N”

[9] = Cross reactivity competitive ELISA with Metabolite 1 (Example 9); conditions: metabolite 200,000 to 200 ng/ml; antibody at EC50 dilution
Procedure: as §2

[10] = unlabeled tofacitinib 1000 to 0.001 ng/ml, antibody at EC50 dilution

B1: 12H4.G2: mouse monoclonal anti-tofacitinib antibody; VH SEQ ID NO:8, VL SEQ ID NO:9 (antibody, listed as Mus musculus, V domains shown)
VH: DVQLQGSGPDLVKPSQSLSLTCTVTGYSITSGYSWNWIRQFPGNTLEWMGFIHYSGSTNYNPSLKSRISITRDTSKNQFFLQLNSVTTEDTATYYCVRGPYGSSFYWGQGTTLTVSS
VL: QAVVTQESALTTSPGETVTLTCRSSTGAVTTSNYATWVQEKPDHLFTGLIGGTNNRAPGVPARFSGSLIGDKAALTLTGAQTEDEAIYFCALWYSNHWVFGGGTKLTVL
For B1, the “4-P Fit parameter C, Concentration vs % B/B0” value [1] was 0.383 and the “cross reactivity to metabolite 1 (in words, FIG. 3)” value [1] was “did not detectably bind metabolite 1”.

B2: 5A3.E5: mouse monoclonal anti-tofacitinib antibody; VH SEQ ID NO:1, VL SEQ ID NO:2 (antibody, listed as Mus musculus, V domains shown)
VH: EVKLVESGGGLVQPGGSLRLSCATSGFTFNDYYMTWVRQPPGKALEWLGFIRNKADGYTPYYSPSVKGRFTISRDNSQSILYLQMNTLRTEDSATYYCARPHYYGFPFGYWGQGTLVTVSA
VL: QAVVTQESALTTSPGETVTLTCRSSTGAVTTNNYANWVQEKPDHLFTGLIGGTNSRAPGVPARFSGSLIGDKAALTITGAQTEDEAMYFCALWYSNHWVFGGGTKLTVL
In the case of B2, the “4-P Fit parameter C, Concentration vs % B/B0” value [1] is reported as 0.191 and the “cross reactivity to metabolite 1 (in words, FIG. 3)” value [1] is reported as “did not detectably bind metabolite 1”.

B3: 10A6.C5: mouse monoclonal anti-tofacitinib antibody; VH SEQ ID NO:3, VL SEQ ID NO:4 (antibody, listed as Mus musculus, V domains shown)
VH: DVQLQESGPDLVKPSQSLSLTCTVTGYSITSGYSWNWIRQFPGNTLEWMGYIHYSGSTNYNPSLKSRISITRDTSKNQFFLQLNSVTTEDTATYYCVRGPYGSSFYWGQGTTLTVSS
VL: NIVMTQSPKSMSMSVGERVTLTCKASENVVTYVSWYQQKPEQSPKLLIYGASNRYTGVPDRFTGSGSATDFTLTISSVQAEDLADYHCGQGYSYPYTFGGGTKLEIKR
With B3 the “4-P Fit parameter C, Concentration vs % B/B0” value [1] was 0.389 and the “cross reactivity to metabolite 1 (in words, FIG. 3)” value [1] was “did not detectably bind metabolite 1”.

B4: 10F10.H5: mouse monoclonal anti-tofacitinib antibody; VH SEQ ID NO:5, VL SEQ ID NO:6 (antibody, listed as Mus musculus, V domains shown)
VH: DVQLQESGPDLVKPSQSLSLTCTVTGYSITSGYSWNWIRQFPGNTLEWMGYIHYSGTTNYNPSLKSRISITRDTSKNQFFLQLNSVTAEDTATYYCARGPYGSSFYWGQGTTLAVSS
VL: QIVLTQSPAIMSASPGEKVTVTCSASSSVSSMHWFQQKPGTSPKLWIYSTSNLASGVPTRFSGSGSGTSYSLTISRMEAEDVATYYCQQRNNYPYTFGGGTKLEIKR
For B4, the “4-P Fit parameter C, Concentration vs % B/B0” value [1] was 0.345 and the “cross reactivity to metabolite 1 (in words, FIG. 3)” value [1] was “did not detectably bind metabolite 1”.

B5: 16F10.E6: mouse monoclonal anti-tofacitinib antibody; VH SEQ ID NO:10, VL SEQ ID NO:11 (antibody, listed as Mus musculus, V domains shown)
VH: DMQLQESGPDLVKPSQSLSLTCTVTGYSITSGYSWNWIRQFPGNTLEWMGYIHYSGNTVYNPSLKSRLSITRDTSKNQFFLQLNSVTTEDTATYYCVRGPYGSSFYWGQGTTLTVSS
VL: DIVMTQSQKFMSTSVGDRVSVTCKASQNVGTNVAWYQQKPGQSPKALIYSASYRYSGVPDRFTGSGSGTDFTLTISNVQSEDLAEYFCQQYYNYPLTFGAGTKLELKR
For B5, the “cross reactivity to metabolite 1 (in words, FIG. 3)” value [1] was “did not detectably bind metabolite 1”.

B6: 12D4.G6: mouse monoclonal anti-tofacitinib antibody; VH SEQ ID NO:12, VL SEQ ID NO:4 (antibody, listed as Mus musculus, V domains shown)
VH: QVQLKESGPGLVAPSQSLSITCTVSGFSLSIYSVHWVRQPPGKGLEWLGMIWGGGNTDYNSVLKSRLSISKDNSKSQVFLKVNSLQTDDTAMYYCARIYYGIFWGQGTLVTVSA
VL: NIVMTQSPKSMSMSVGERVTLTCKASENVVTYVSWYQQKPEQSPKLLIYGASNRYTGVPDRFTGSGSATDFTLTISSVQAEDLADYHCGQGYSYPYTFGGGTKLEIKR
With B6 the “4-P Fit parameter C” value [2] was 109, the “Antigen ED50” value [3] was 118 ng/mL and the “Tofacitinib ED50” value [3] was 0.118 mg/L. For the same molecule, the “4-P Fit parameter C, Concentration vs % B/B0” value [3] was 108, the “Antigen ED50” value [4] was 0.152 mg/L and the “binding of metabolite 1 (in words)” value [5] was “did not substantially bind”. For the same molecule, the “Metabolite 1 Cross reactivity” value [5] was 4.17%, the “Metabolite-2 Cross reactivity” value [6] was 0.15% and the “4-P Fit parameter C, Concentration vs % B/B0” value [1] was 2.14 × 10^7. For the same molecule, the “cross reactivity to metabolite 1 (in words, FIG. 3)” value [1] was “did not detectably bind metabolite 1”, the “binding of metabolite 2 (in words)” value [7] was “did not substantially bind” and the “Metabolite 2 Cross reactivity” value [7] was 0.15%. For the same molecule, the “competition by unlabeled tofacitinib for binding to biotinylated tofacitinib (in words)” value [8] was “competition was seen”, the ED20 [8, 10] was 0.457 mg/L and the ED50 [8, 10] was 0.104 mg/L. The ED80 [8, 10] was 0.024 mg/L and the “Metabolite-1 Cross reactivity” value [9] was 4.17%.

B7: 6D9.A5: mouse monoclonal anti-tofacitinib antibody; VH SEQ ID NO:7, VL SEQ ID NO:4; replacement subclone for 6D9.A8 (antibody, listed as Mus musculus, V domains shown)
VH: QVQLKESGPGLVAPSESLTITCTVSGFSLSRYSIHWVRQPPGKGLEWLGMIWGGGSTDYNSVLKSRLTIRKDYSKSQVFLKMNSLQTDDTAMYYCARIYYGIYWGQGTLVTVSA
VL: NIVMTQSPKSMSMSVGERVTLTCKASENVVTYVSWYQQKPEQSPKLLIYGASNRYTGVPDRFTGSGSATDFTLTISSVQAEDLADYHCGQGYSYPYTFGGGTKLEIKR
notes: mouse monoclonal anti-tofacitinib antibody; replacement subclone for 6D9.A8
With B7 the “binding of the parent drug, potency compared with antibody 12D4.G6 (in words)” value [3] was “more potent binders of the parent drug”, the “Antigen ED50” value [3] was 244 ng/ml ng/mL and the “Tofacitinib ED50” value [3] was 0.244 mg/L. The “4-P Fit parameter C, Concentration vs % B/B0” value [3] was 224, the “binding of metabolite 1 (in words)” value [5] was “did not substantially bind” and the “Metabolite 1 Cross reactivity” value [5] was 4.47%. The “cross reactivity to metabolite 1 (in words, FIG. 3)” value [1] was “did not detectably bind metabolite 1”, the “binding of metabolite 2 (in words)” value [7] was “did not substantially bind” and the “Metabolite 2 Cross reactivity” value [7] was <0.01%.

Source: patent publication US9408922B2, “Anti-tofacitinib antibodies and uses thereof for drug monitoring” (Pfizer Inc., priority 2012, dated 2016)
